Experiments:
Type in all cases: physicochemical
[1] = Electrophoresis (SDS-PAGE 12 and 18%) with silver staining of proteins after encapsulation in cores; conditions: cores with sodium hyaluronate and rice starch diluent particles; carbon dioxide atomisation; cold medium ethanol or ethanol containing solid carbon dioxide; dried with air at room temperature
Method: (§1) Cores suitable for air suspension coating and containing either human growth hormone (hGH) or erythropoietin (EPO) were prepared by essentially according to Example 1 using carbon dioxide for atomisation but with ethanol or ethanol containing solid carbon dioxide as the cold medium. For hGH the composition contained sodium hyaluronate (1%, about 4.1 g), diluent particles (rice starch, Sigma 57260, 1.83 g) and hGH (217 mg) and for EPO sodium hyaluronate (about 3.4), diluent particles (about 1.48 g) and EPO (11 mg). There was substantial stirring in the cold medium in the presence of solid carbon dioxide and little, if any, backflow of gas. The cold medium was removed by filtration and the cores dried using air at room temperature and atmospheric pressure. Cores suitable for air suspension coating were formed containing hGH (624 mg) and EPO (468 mg). […] No increase in the content of dimer or polymer forms of hGH were observed by HPLC size exclusion chromatography (SEC-HPLC, TSK2000 SWx1, Tosoh Corporation) according to Reslow et al (Sustained release of human growth hormone (hGH) from PLG-coated starch microspheres. Drug Delivery Systems and Sciences, 2002, 2,1 103-109).

[2] = Western blotting for dimer content
Method: as §1

[3] = HPLC size exclusion chromatography (SEC-HPLC, TSK2000 SWx1) for dimer or polymer forms; conditions: cores prepared per Example 10
Method: as §1

Substance | degradation products detected by electrophoresis [1] | increase in dimer content ([2]; absence of carbon dioxide in the cold medium (ethanol)) | increase in dimer content ([2]; carbon dioxide present in the cold medium (ethanol)) | increase in the content of dimer or polymer forms [3]
erythropoietin [EPO] | No degradation products | clearly higher increase | slight increase | –
human growth hormone [hGH] | No degradation products | – | – | No increase

Source: patent US20100180464A1, “Cores and microcapsules suitable for parenteral administration as well as process for their manufacture” (STRATOSPHERE PHARMA AB, priority 2007, published 2010)
